Our source for the EC50 (read off the curve) values is patent US20200121783A1.

The target of this assay is eOD-GT8 60 mer (Aquifex aeolicus; HIV-1). Put plainly: ELISA, antibody titration. A general note: In an ELISA, binding on a coated surface is turned into a signal by an enzyme label.

The term EC50 (read off the curve) denotes the concentration at which the effect is half-maximal. Substance VRC01 (antibody) showed an EC50 (read off the curve) of 0.2 µg/mL. As to “VRC-PG04g1 (v-gene germline revertant of VRC-PG04) (antibody)”, the EC50 (read off the curve) was determined as 0.5 µg/mL.
